Target: CUL2^ZYG11B (residues 490–728) (human) (UniProt Q9C0D3)
Experiment: ITC; MicroCal iTC200; peptides (0.5–1 mmol/L) in the syringe, CUL2^ZYG11B(490–728) (0.03 mmol/L) in the cell; 18 injections of 2 μL; repeated 3 times

Chain of CUL2^ZYG11B (residues 490–728) (human) (Q9C0D3 490-728): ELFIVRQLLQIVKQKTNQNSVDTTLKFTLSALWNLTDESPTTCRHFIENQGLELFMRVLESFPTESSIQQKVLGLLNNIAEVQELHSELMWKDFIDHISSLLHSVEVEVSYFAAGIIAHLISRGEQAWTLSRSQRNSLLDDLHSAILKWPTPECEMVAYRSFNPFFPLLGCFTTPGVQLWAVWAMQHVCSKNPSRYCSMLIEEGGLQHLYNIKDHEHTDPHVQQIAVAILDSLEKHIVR

Row | Substance | fold decrease of binding against ORF10 N5 | Kd
1 | SARS-CoV-2 ORF10 N5 peptide G1A | 4 fold | 
2 | SARS-CoV-2 ORF10 N5 peptide G1S | 4 fold | 
3 | SARS-CoV-2 ORF10 N5 peptide I3A |  | 5.61 µM
4 | SARS-CoV-2 ORF10 N5 peptide I3F |  | 0.87 µM
5 | SARS-CoV-2 ORF10 N5 peptide N4A |  | 0.59 µM
6 | SARS-CoV-2 ORF10 N5 peptide Y2A |  | 25.2 µM
7 | SARS-CoV-2 ORF10 N5 peptide Y2F |  | 4.73 µM

Reference: paper PMC11413682
